The text below walks through data of PMC7761212 (2020).

This assay addresses AHb1 (Arabidopsis thaliana, UniProt O24520). The assay can be described thus: size exclusion chromatography.

B1: AHb1 (protein)
chain: MESEGKIVFTEEQEALVVKSWSVMKKNSAELGLKLFIKIFEIAPTTKKMFSFLRDSPIPAEQNPKLKPHAMSVFVMCCESAVQLRKTGKVTVRETTLKRLGASHSKYGVVDEHFEVAKYALLETIKEAVPEMWSPEMKVAWGQAYDHLVAAIKAEMNLSN
modifications: ferrous-oxy heme (O2-bound)
Turning to B1, the affinity, expressed as Kd, was 1.2 µM.

B2: AHb1 (protein)
chain: MESEGKIVFTEEQEALVVKSWSVMKKNSAELGLKLFIKIFEIAPTTKKMFSFLRDSPIPAEQNPKLKPHAMSVFVMCCESAVQLRKTGKVTVRETTLKRLGASHSKYGVVDEHFEVAKYALLETIKEAVPEMWSPEMKVAWGQAYDHLVAAIKAEMNLSN
modifications: ferric heme
For B2, the Kd – broadly, a measure of binding affinity in units of concentration – worked out at 11 µM.
